Test results taken from patent US20240034787A1 (TOKYO UNIVERSITY OF PHARMACY AND LIFE SCIENCES, published 2024).

Target: T1, LRP1 of rat retinal ganglion cells (rat, UniProt G3V928 20-4545)
T1 construct: Endogenous LRP1 in the rat retina (ganglion cell layer); also called LRP1 on retinal ganglion cells
Assay: fluorescent immunostaining of rat retina sections after intravitreal administration (colocalisation in the ganglion cell layer)
Experimental: Frozen specimen preparation and immunofluorescence staining of rat eyeballs were performed in the following procedures. [0212] (1) Thinly sliced sections were prepared in the same manner as in the HE staining method. [0213] (2) 15% blocking buffer (in PBS, goat 15% serum, 0.05% Tween 20) was added and reacted at room temperature for one hour. [0214] (3) Washing was performed with PBS for 15 minutes. [0215] (4) A Primary antibody ([…] in 1% blocking buffer) was added and incubated overnight at 4° C. [0216] (5) Washing was performed with PBS for 15 minutes. [0217] (6) A secondary antibody (Alexa Fluor 488-bound goat anti-rabbit IgG (dilution 1:500, Invitrogen)) and Alexa Fluor 594-bound goat anti-human IgG (dilution 1:500, Invitrogen)) were added and reacted at room temperature for one hour. [0218] (7) Washing was performed with PBS containing Heochst33342 (1:2000 dilution) for one minute. [0219] (8) After encapsulation, observation was performed with a fluorescence microscope.
In the above experiment, it was observed by fluorescent immunostaining whether C2-D11 IgG binds to LRP1 of retinal ganglion cells after being administered into the vitreous body of rats. […] On the other hand, it was shown that the anti-OVA antibody was not colocalized.

T1 sequence (G3V928 20-4545 limits assumed): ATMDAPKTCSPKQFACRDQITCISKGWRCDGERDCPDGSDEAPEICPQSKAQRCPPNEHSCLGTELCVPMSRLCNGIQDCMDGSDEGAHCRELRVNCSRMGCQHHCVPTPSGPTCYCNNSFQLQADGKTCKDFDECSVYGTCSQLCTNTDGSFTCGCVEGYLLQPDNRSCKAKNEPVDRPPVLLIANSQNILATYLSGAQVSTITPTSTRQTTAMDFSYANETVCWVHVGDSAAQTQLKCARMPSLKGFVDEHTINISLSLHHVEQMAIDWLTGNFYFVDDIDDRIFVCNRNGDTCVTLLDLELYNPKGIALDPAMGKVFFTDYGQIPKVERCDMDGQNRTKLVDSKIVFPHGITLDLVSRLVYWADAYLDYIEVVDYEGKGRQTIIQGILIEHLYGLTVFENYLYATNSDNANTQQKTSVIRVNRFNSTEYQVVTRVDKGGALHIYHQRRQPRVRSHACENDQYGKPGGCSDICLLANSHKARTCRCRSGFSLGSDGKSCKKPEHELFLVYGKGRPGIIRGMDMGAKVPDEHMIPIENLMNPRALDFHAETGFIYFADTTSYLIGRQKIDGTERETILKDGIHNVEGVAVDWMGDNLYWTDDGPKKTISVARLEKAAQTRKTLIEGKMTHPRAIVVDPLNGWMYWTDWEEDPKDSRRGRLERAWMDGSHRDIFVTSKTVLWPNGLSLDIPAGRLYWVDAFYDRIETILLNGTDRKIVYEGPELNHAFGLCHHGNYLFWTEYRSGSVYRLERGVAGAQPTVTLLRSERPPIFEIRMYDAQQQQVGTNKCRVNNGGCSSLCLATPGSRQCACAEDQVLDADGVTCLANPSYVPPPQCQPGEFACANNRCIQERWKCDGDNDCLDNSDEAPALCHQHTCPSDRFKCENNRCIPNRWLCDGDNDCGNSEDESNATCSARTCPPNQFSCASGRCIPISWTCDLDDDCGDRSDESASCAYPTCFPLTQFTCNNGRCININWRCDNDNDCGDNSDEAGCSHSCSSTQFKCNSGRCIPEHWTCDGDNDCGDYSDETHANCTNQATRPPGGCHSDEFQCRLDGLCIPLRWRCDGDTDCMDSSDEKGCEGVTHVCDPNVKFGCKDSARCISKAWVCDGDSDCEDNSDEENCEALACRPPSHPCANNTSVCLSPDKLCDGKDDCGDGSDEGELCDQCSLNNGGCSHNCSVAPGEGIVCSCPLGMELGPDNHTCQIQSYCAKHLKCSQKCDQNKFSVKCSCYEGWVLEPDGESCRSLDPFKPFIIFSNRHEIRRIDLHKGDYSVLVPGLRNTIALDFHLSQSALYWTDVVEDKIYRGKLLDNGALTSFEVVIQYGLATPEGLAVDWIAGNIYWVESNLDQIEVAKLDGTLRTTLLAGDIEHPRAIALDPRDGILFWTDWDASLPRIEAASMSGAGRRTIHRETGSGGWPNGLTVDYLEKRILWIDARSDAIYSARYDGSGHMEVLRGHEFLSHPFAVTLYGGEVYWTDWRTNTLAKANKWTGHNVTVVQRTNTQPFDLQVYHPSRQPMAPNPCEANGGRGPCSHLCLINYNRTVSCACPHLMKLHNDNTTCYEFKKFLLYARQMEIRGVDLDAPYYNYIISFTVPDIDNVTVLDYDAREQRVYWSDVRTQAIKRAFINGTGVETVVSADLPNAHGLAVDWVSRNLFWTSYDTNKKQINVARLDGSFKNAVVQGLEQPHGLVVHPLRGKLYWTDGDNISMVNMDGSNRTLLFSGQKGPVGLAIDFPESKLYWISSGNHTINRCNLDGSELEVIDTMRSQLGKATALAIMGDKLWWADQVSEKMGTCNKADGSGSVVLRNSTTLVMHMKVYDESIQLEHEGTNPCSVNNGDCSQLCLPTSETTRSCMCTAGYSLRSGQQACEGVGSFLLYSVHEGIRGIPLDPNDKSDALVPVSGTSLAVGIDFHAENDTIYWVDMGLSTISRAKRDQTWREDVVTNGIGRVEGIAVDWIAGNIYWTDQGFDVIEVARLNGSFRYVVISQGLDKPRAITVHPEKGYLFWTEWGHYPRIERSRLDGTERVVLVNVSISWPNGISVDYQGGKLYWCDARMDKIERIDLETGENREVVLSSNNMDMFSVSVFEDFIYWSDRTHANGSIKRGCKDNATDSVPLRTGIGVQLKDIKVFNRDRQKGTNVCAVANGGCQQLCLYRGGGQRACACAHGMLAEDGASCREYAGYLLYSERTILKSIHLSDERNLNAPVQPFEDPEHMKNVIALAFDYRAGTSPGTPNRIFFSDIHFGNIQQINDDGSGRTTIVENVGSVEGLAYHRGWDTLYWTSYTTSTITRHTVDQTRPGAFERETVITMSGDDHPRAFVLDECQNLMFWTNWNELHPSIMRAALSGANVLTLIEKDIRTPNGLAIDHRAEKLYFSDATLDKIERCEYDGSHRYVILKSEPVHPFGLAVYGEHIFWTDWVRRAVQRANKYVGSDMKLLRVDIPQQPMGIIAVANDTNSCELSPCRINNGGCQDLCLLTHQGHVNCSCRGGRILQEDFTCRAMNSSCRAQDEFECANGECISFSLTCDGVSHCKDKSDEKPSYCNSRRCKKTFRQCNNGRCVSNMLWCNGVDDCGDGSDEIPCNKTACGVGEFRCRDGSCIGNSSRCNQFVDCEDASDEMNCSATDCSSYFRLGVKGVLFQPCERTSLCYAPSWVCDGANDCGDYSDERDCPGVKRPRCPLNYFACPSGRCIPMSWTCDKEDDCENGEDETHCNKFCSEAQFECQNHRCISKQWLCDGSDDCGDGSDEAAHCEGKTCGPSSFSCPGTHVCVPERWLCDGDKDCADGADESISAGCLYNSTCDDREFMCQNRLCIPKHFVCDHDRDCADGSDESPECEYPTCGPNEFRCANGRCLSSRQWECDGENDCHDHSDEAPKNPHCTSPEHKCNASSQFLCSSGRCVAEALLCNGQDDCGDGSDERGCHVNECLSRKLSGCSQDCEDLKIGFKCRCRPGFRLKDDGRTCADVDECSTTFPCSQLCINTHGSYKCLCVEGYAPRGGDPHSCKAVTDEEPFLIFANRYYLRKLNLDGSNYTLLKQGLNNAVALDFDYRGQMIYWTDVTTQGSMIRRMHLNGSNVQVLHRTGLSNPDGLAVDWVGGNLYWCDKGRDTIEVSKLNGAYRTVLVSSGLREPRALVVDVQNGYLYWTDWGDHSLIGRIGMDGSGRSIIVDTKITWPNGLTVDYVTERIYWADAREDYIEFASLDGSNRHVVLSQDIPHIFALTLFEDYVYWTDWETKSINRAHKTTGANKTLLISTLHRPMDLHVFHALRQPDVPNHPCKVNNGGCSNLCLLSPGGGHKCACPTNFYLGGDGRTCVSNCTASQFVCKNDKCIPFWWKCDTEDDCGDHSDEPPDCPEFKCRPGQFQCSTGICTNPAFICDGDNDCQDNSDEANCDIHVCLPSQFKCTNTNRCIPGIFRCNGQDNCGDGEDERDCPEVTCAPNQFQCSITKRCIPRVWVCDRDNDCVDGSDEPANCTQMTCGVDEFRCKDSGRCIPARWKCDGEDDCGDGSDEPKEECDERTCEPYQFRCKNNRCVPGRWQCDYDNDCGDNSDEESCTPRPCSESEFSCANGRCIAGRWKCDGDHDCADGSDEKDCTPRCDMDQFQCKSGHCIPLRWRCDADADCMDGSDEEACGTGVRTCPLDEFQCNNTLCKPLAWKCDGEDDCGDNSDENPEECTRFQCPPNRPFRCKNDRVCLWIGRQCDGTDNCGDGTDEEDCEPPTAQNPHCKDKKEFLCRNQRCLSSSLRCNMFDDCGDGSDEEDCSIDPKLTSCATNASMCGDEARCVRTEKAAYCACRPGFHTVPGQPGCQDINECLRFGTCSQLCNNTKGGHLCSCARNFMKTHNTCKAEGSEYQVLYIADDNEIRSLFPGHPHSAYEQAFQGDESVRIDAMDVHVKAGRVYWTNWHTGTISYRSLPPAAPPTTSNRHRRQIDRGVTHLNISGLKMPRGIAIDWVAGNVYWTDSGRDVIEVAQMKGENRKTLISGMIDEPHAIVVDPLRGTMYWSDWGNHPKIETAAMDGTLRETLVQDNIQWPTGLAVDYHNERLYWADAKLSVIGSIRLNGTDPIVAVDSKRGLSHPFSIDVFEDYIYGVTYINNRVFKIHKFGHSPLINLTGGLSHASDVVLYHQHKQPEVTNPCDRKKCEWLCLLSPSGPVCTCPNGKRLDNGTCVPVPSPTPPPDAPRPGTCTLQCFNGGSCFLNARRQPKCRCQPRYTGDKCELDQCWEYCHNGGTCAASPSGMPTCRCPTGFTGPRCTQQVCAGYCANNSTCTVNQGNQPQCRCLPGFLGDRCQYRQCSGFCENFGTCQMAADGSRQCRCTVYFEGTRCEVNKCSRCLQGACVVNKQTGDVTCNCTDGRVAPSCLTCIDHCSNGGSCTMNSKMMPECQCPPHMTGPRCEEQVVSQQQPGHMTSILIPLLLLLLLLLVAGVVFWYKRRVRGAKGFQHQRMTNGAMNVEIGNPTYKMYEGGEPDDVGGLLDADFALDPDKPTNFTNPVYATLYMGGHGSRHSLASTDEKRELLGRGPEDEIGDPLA

binding result: binds
B1: anti-LRP1 human IgG1 antibody prepared from C2_D11 (antibody, V domains shown)
VH: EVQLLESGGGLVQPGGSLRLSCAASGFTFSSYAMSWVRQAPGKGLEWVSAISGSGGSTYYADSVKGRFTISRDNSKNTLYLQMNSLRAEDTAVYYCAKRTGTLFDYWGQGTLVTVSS
VL: SSELTQDPAVSVALGQTVRITCQGDSLRSYYASWYQQKPGQAPVLVIYGKNNRPSGIPDRFSGSSSGNTASLTITGAQAEDEADYYCNSSQAQRNAVVFGGGTKLTVLG
notes: VH and VL of C2_D11 were put into expression vectors with a human IgG1 Fc region and expressed in HEK-293; also called C2-D11 IgG; human C2-D11 IgG
